Assay [1] addresses T1, ヒトTFPI(American Diagnostica) (human, UniProt P10646 29-304, limits assumed).
T1 construct: Coated on plates (ELISA) or coupled to a CM5 chip (Biacore); also called human TFPI; hTFPI
T1 sequence (looked up): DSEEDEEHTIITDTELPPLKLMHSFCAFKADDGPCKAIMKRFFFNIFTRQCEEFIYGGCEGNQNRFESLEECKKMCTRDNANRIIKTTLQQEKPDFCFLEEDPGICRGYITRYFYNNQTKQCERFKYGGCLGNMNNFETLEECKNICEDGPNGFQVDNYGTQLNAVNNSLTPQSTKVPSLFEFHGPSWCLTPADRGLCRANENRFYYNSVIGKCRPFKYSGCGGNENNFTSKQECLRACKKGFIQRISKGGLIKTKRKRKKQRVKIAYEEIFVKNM
Put plainly: ELISA screen of Fab lysates on coated human TFPI. (In general: In an ELISA, binding on a coated surface is turned into a signal by an enzyme label.)

Assay [2] addresses T1, ヒトTFPI(American Diagnostica). Description: ELISA on coated human TFPI.
Assay [3] has as its target T2, マウスTFPI(R&D System) (mouse, UniProt O54819 29-289, limits assumed).
T2 construct: also called mouse TFPI; mTFPI
T2 sequence (looked up): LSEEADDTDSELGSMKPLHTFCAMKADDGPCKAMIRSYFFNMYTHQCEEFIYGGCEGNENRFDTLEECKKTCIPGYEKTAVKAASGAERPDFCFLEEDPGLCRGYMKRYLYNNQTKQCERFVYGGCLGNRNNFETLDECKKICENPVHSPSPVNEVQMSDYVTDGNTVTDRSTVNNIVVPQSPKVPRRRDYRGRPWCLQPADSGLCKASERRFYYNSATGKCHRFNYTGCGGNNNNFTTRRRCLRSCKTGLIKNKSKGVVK
Description: ELISA on coated mouse TFPI.

Assay [4] addresses T1, ヒトTFPI(American Diagnostica). Put plainly: ELISA on coated human TFPI, IgG against Fab.
Assay [5] concerns the target T2, マウスTFPI(R&D System). Description: ELISA on coated mouse TFPI, IgG against Fab.

B1: TP-4B7 (Fab, V domains shown)
VH: QVQLQQSGPGLVKPSQTLSLTCAISGDSVSSNSAAWSWIRQSPGRGLEWLGIIYKRSKWYNDYAVSVKSRITINPDTSKNQFSLQLNSVTPEDTAVYYCARWHSDKHWGFDYWGQGTLVTVSS
VL: DIVMTQSPLSLPVTPGEPASISCRSSQSLVFSDGNTYLNWYLQKPGQSPQLLIYKGSNRASGVPDRFSGSGSGTDFTLKISRVEAEDVGVYYCQQYDSYPLTFGQGTKVEIKR
notes: Human Fab from HuCAL Gold
For the molecule B1, the binding result in assay [1] was “binds”.

B2: TP-2G6 (Fab, V domains shown)
VH: QVQLQQSGPGLVKPSQTLSLTCAISGDSVSSSSAAWSWIRQSPGRGLEWLGIIYYRSKWYNDYAVSVKSRITINPDTSKNQFSLQLNSVTPEDTAVYYCARHSMVGFDVWGQGTLVTVSS
VL: DIVLTQSPATLSLSPGERATLSCRASQYVTSSYLAWYQQKPGQAPRLLIYGSSRATGVPARFSGSGSGTDFTLTISSLEPEDFATYYCQQYSSSPITFGQGTKVEIKR
notes: Human Fab from HuCAL Gold, purified over Ni-NTA; also called 2G6-Fab
As to B2, the half-maximal effective concentration (EC50) (in general, the concentration at which the effect is half-maximal) was found to be 0.48 nM in assay [2] and 5.18 nM with マウスTFPI(R&D System) [3].

B3: 2G6−IgG (antibody, V domains shown)
VH: QVQLQQSGPGLVKPSQTLSLTCAISGDSVSSSSAAWSWIRQSPGRGLEWLGIIYYRSKWYNDYAVSVKSRITINPDTSKNQFSLQLNSVTPEDTAVYYCARHSMVGFDVWGQGTLVTVSS
VL: DIVLTQSPATLSLSPGERATLSCRASQYVTSSYLAWYQQKPGQAPRLLIYGSSRATGVPARFSGSGSGTDFTLTISSLEPEDFATYYCQQYSSSPITFGQGTKVEIKR
notes: also called IgG-2G6; 2G6-IgG
On to B3, for which the EC50 worked out at 0.22 nM in assay [2] and 0.51 nM with マウスTFPI(R&D System) [3]. For the same molecule, the figures for the “fold change of EC50 against 2G6-Fab” value (in assay [4]; in the assay with マウスTFPI(R&D System) [5]) were 2 fold and 10 fold, respectively.

B4: TP-2A8 (Fab, V domains shown)
VH: QVQLVESGGGLVQPGGSLRLSCAASGFTFRSYGMSWVRQAPGKGLEWVSSIRGSSSSTYYADSVKGRFTISRDNSKNTLYLQMNSLRAEDTAVYYCARKYRYWFDYWGQGTLVTVSS
VL: DIELTQPPSVSVAPGQTARISCSGDNLRNYYAHWYQQKPGQAPVVVIYYDNNRPSGIPERFSGSNSGNTATLTISGTQAEDEADYYCQSWDDGVPVFGGGTKLTVLG
notes: Human Fab from HuCAL Gold; also called Fab-2A8; TP-2A8-Fab
Regarding B4, the binding result in assay [1] is “binds”.

These data come from patent JP2018038398A (dated 2018).
